# Measured values published in patent publication US11767344B2, “Pharmaceutically acceptable salts of polypeptides and methods of inhibiting the interaction between psd-95 and n-methyl-d-aspartic acid receptor (nmdar)” (BIOCELLS (BEIJING) BIOTECH CO., LTD., priority 2017, dated 2023).
# Ends that are not written are not given here.
# What was measured:
# [1] = tested on: rat MCAO model; experiment: Therapeutic effect on rat MCAO model (cerebral infarction volume, TTC staining); type: in vivo
# [2] = Stability analysis of P5 salt powders (HPLC area normalization); settings: powder, 10 days
# Protocol: The three P5 salts in Example 3 in their powder form were subjected to treatments with irradiation (3000 Lx)+ultraviolet (UV), high temperature (60° C.), and high humidity (75% RH) for 10 days. After the treatments, the powders were dissolved in water to prepare a solution at a concentration of 2 mg/ml. 10 μl of each solution was accurately measured and injected into a liquid chromatograph, and the chromatograms were recorded. Relevant substances were calculated according to the area normalization method to analyze the content and the number of impurity species.
# (§1) Mobile phase: A 0.065% TFA-water; B 0.05% TFA-ACN
# (§2) Detection wavelength λ=220 nm; flow rate V=1.0 ml/min; temperature T=36° C.
# Injection volume Inj=10 ul
# (§3) Gradient conditions: 0-30 min, B %=5-65%
# [3] = Stability analysis of P5 salt solutions (HPLC area normalization); settings: aqueous solution 2 mg/ml, irradiation (3000 Lx), 10 days
# Protocol: The solutions were subjected to treatments with irradiation (3000 Lx) and high temperature (60° C.) for 10 days. After the treatments, 10 μl of each solution was accurately measured and injected into a liquid chromatograph, and the chromatograms were recorded. The relevant substances were calculated according to the area normalization method to analyze the content and the number of impurity species.
# high performance liquid chromatograph (Agilent, 1260 EZChrom); chromatographic column (Agilent, ZORBAX 300SB-C18 (4.6*250 mm, 5 μm) SN: USHH008416); analytical balance (Sartoris, BT25S); filter membrane (Millipore, 0.45 μm PTFE); acetonitrile (MREDA); water (Aqua); TFA (MREDA); and comprehensive drug stability test box (three-box type) (Shanghai Zuocheng Experimental Instrument Co. Ltd, item no. SHH-3SDT).
# as §1, §2
# Injection volume Inj=10 μl
# as §3
# [4] = irradiation (3000 Lx) + ultraviolet
substance,measurement,setting,value
P5-TFA: trifluoroacetate salt of chimeric peptide P5 (YGRKKRRQRRRYEKLLDTEI) (also: trifluoroacetate salt),cerebral infarction volume as compared with the model group,"[1]; 10 mg/kg tail vein injection 1 hour after ischemia, 24 h after administration, p<0.01",significantly reduced
same,effect in reducing cerebral infarction volume as compared with positive control drug NBP,"[1]; 10 mg/kg vs NBP 2.5 mg/kg, tail vein injection 1 hour after ischemia, p<0.05",significantly superior
same,Number of impurity species,[2]; high humidity (75% RH),1
same,Percentage of main peak area,[2]; high humidity (75% RH),99.73%
same,Number of impurity species,[2]; high temperature (60° C.),3
same,Percentage of main peak area,[2]; high temperature (60° C.),99.56%
same,Number of impurity species,[2]; [4],6
same,Percentage of main peak area,[2]; [4],98.34%
same,Number of impurity species,[3],10
same,Percentage of main peak area,[3],97.28%
